Laboratory results published in article PMC7060258.

Tests used:
[1] = target: recombinant HCIQ2c1 Kunitz-type peptide from Heteractis crispa (Heteractis crispa); experiment: SPR; Biacore 3000; peptides covalently immobilised on a CM4 chip (970 RU rHCIQ2c1, 460 RU rHCIQ4c7); proteinases 1 nM to 5 μM flowed over; 25 °C; HBS: 0.15 M NaCl, 0.01 M HEPES, pH 7.4
[2] = target: recombinant HCIQ2c1 Kunitz-type peptide from Heteractis crispa (Heteractis crispa); experiment: SPR; rHCIQ2c1 immobilised on a CM4 chip; temperature range of 10–40 °С at an interval of 5 °С; enthalpy from the temperature dependence of ΔG (Van't Hoff diagram)

recombinant HCIQ2c1 Kunitz-type peptide from Heteractis crispa (Heteractis crispa), sequence (A0A6B7FBD3 28-85): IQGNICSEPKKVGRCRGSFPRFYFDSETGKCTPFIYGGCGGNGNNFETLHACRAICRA

Substance | Ka [1] | Kd [1] | koff [1] | kon [1] | dH [2]
cathepsin G (from UniProt P08311 21-244) (enzyme) | 3.58e+09 M⁻¹ | 0.279 nM | 0.000359 s⁻¹ | 1.29e+06 M⁻¹ s⁻¹ | –
α-chymotrypsin (enzyme) | 1.03e+07 M⁻¹ | 97.4 nM | 0.00749 s⁻¹ | 76900 M⁻¹ s⁻¹ | 4.68 kcal/mol
